Data on five variants can be found in IntAct's records for PubMed 36931259.

B1: 14-3-3 protein sigma (Homo sapiens), P31947 (parent)
chain: MERASLIQKAKLAEQAERYEDMAAFMKGAVEKGEELSCEERNLLSVAYKNVVGGQRAAWRVLSSIEQKSNEEGSEEKGPEVREYREKVETELQGVCDTVLGLLDSHLIKEAGDAESRVFYLKMKGDYYRYLAEVATGDDKKRIIDSARSAYQEAMDISKKEMPPTNPIRLGLALNFSVFHYEIANSPEEAISLAKTTFDEAMADLHTLSEDSYKDSTLIMQLLRDNLTLWTADNAGEEGGEAPQEPQS
partner: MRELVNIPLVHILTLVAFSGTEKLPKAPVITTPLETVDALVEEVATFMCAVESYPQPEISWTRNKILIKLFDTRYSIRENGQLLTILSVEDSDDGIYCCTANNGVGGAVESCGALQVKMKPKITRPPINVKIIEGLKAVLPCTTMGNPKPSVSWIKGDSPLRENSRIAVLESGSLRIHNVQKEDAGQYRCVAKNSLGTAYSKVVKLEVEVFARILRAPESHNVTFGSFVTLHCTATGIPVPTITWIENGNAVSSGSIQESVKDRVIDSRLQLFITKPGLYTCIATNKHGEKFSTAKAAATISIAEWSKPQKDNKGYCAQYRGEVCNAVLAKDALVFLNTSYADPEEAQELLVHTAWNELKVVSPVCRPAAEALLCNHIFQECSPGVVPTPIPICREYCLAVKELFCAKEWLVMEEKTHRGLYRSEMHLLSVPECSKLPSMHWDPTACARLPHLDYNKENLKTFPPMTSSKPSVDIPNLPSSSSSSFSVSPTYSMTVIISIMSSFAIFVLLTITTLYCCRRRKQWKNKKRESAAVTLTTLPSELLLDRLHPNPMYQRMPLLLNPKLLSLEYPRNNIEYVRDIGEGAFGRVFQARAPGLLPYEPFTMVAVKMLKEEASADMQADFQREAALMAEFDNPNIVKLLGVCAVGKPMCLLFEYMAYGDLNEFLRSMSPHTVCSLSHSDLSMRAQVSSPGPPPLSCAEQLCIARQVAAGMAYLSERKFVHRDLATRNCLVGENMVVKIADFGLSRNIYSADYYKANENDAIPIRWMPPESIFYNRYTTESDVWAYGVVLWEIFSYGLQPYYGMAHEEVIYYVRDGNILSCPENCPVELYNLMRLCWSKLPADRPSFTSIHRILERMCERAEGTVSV
B2: 14-3-3 protein sigma (Homo sapiens), P31947 (parent)
chain: B1 chain
partner: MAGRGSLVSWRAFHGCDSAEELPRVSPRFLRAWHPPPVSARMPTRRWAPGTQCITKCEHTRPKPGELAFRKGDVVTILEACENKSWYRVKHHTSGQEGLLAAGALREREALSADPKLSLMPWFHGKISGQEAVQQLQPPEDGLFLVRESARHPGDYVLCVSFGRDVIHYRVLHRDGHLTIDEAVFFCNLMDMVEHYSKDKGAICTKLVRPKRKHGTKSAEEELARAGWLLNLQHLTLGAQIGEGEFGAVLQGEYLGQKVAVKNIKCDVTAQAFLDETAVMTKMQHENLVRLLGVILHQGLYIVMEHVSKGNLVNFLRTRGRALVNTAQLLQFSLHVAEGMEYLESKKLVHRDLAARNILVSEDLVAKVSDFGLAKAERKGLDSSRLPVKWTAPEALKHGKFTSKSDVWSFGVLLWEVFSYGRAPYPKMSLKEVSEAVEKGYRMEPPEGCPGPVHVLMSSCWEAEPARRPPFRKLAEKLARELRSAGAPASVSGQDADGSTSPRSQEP
B3: 14-3-3 protein sigma (Homo sapiens), P31947 (parent)
chain: B1 chain
partner: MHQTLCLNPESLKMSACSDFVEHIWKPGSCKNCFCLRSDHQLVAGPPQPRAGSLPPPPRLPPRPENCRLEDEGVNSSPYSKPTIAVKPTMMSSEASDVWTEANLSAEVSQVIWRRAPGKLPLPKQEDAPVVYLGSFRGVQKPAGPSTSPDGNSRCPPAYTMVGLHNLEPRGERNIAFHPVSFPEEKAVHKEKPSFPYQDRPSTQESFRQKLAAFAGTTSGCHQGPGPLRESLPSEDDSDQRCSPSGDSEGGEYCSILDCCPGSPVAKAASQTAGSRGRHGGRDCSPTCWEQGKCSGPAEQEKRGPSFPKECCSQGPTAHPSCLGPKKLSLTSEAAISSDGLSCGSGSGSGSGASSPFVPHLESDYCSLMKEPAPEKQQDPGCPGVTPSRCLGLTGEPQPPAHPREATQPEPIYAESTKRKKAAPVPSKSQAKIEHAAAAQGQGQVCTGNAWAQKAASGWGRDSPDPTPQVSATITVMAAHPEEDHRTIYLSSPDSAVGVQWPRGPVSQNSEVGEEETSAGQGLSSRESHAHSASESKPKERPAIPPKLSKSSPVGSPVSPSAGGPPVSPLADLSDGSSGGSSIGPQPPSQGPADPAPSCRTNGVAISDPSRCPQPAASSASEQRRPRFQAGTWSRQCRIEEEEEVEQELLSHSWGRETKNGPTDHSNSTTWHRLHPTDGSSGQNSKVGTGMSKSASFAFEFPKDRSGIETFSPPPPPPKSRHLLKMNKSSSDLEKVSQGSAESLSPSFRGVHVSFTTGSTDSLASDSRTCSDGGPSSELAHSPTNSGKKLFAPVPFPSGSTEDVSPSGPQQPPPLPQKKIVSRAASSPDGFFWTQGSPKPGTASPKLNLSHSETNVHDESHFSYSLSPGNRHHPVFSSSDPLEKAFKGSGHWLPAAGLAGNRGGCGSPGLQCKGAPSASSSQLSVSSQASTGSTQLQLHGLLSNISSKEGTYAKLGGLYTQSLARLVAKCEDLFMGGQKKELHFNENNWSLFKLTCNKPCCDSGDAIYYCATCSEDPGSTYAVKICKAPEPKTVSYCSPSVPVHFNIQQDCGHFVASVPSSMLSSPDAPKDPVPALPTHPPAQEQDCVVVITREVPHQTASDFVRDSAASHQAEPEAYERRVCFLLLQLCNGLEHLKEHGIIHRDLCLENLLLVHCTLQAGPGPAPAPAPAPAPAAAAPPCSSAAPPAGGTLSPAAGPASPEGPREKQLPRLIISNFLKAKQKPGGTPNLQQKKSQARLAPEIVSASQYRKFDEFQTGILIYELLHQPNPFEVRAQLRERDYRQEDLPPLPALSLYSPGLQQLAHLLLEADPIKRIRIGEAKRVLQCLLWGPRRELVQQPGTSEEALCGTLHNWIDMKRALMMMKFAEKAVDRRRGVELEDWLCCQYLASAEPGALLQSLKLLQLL
B4: 14-3-3 protein sigma (Homo sapiens), P31947 (parent)
chain: B1 chain
partner: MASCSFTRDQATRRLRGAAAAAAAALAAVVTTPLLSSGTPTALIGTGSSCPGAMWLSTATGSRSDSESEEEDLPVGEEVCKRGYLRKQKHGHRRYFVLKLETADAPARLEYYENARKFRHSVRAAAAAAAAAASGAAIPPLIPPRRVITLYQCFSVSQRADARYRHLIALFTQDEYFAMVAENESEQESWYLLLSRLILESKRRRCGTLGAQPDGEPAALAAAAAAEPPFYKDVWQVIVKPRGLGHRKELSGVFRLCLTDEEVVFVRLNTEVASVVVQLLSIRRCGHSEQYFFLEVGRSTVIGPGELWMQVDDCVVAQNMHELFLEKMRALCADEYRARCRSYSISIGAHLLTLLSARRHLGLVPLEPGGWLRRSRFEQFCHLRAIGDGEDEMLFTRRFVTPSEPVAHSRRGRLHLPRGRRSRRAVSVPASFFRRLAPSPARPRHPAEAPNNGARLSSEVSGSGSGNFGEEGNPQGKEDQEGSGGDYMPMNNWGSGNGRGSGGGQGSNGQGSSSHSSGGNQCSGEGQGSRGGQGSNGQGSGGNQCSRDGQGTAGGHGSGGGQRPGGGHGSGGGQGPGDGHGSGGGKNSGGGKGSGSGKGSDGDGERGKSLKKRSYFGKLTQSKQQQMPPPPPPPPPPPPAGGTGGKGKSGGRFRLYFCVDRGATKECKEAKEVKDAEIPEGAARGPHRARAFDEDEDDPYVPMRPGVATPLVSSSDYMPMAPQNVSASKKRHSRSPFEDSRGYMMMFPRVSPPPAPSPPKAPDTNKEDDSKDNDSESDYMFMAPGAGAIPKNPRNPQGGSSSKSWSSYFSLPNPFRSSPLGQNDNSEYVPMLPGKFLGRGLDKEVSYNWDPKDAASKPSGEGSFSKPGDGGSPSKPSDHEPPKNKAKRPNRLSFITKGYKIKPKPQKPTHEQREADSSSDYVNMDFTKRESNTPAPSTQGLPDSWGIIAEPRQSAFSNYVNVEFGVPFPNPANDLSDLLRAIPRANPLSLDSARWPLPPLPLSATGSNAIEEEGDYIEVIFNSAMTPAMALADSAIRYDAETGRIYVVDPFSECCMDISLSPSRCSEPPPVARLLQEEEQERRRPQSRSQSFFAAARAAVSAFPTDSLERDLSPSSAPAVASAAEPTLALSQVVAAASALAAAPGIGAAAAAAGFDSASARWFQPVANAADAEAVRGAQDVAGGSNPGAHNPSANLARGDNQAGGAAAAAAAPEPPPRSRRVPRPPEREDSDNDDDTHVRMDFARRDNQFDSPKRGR
B5: 14-3-3 protein sigma (Homo sapiens), P31947 (parent)
chain: B1 chain
partner: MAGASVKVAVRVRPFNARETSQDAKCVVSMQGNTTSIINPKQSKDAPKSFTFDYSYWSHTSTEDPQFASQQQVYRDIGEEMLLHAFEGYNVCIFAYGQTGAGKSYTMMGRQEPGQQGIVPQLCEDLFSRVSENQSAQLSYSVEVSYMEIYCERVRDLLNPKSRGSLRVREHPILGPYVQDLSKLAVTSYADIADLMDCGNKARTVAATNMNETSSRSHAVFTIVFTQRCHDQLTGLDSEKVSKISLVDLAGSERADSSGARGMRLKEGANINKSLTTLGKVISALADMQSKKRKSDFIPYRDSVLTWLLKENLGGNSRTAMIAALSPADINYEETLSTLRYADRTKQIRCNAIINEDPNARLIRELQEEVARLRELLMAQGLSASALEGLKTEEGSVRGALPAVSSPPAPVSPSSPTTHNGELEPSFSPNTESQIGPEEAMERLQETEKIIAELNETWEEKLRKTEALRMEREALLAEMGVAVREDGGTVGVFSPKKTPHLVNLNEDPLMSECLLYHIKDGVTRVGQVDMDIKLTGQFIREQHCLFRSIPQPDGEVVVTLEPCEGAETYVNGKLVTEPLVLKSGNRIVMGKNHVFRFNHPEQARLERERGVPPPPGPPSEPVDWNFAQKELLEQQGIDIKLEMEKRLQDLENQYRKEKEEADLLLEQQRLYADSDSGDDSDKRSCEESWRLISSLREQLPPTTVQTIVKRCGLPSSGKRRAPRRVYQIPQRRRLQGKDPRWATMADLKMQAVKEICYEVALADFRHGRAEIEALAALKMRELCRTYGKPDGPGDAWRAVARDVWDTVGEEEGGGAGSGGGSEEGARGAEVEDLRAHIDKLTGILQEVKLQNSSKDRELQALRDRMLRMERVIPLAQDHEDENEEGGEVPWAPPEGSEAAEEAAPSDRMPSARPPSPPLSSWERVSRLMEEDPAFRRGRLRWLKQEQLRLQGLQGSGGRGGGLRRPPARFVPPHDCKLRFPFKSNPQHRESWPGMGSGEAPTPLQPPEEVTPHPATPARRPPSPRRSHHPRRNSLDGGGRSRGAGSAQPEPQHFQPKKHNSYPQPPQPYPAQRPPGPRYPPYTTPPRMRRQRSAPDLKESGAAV

The variants in one assay derive from B1. To be noted: with musk_human MUSK.
Consider K49E;R56E;V178D, for which the “effect of a mutation on the interaction” value is recorded as “decreasing interaction strength”.

The variants in the next assay derive from B2. To be noted: with matk_human MATK.
With K49E;R56E;V178D, the “effect of a mutation on the interaction” value is reported as “decreasing interaction strength”.

In a further assay the parent is B3. The conditions noted are these: with prag1_human PRAG1, Q86YV5.
For the variant K49E;R56E;V178D, the “effect of a mutation on the interaction” value is “decreasing interaction strength”.

A further assay covers variants of B4. The conditions noted are these: with irs4_human IRS4, O14654.
Turning to K49E;R56E;V178D, the “effect of a mutation on the interaction” value was “decreasing interaction strength”.

Variants of B5 are the subject of another assay. The conditions noted are these: with kif1c_human KIF1C.
Consider K49E;R56E;V178D, for which the “effect of a mutation on the interaction” value is “decreasing interaction strength”.
